Experiments:
[1] = target: HPV16 E6N domain (residues 1-80), wild type (HPV16); experiment: NMR titration
[2] = target: the molecule itself; experiment: AUC
[3] = target: the molecule itself; experiment: SEC

Molecule: HPV16 E6N domain (residues 1-80), wild type (domain or fragment)
- Kd [1]: 290 µM

B1: HPV18 E6N domain (residues 1-82) (domain or fragment)
chain: MARFEDPTRRPYKLPDLCTELNTSLQDIEITCVYCKTVLELTEVFEFAFKDLFVVYRDSIPHAACHKCIDFYSRIRELRHYS
- stoichiometry N [2]: 2

B2: HPV11 MBP-E6N fusion construct (E6N residues 1-81) (domain or fragment)
chain: MESKDASTSATSIDQLCKTFNLSLHTLQIQCVFCRNALTTAEIYAYAYKNLKVVWRDNFPFAACACCLELQGKINQYRHFN
- stoichiometry N [3]: 2

From publication PMC3325491 (Structure(London, England:1993), 2012)
